How the values were obtained:
[1] = tested on: tryptic and chymotryptic proteases; assay: In vitro inhibitor treatment: rituximab heavy chain degradation in M44 supernatant; format: biochemical, Trichoderma reesei; conditions: 100 μM chymostatin or 1 mg/ml SBTI; M44 supernatant 6 mg/ml, pH 5.5
Description: Based on the knowledge that the heavy chain is cleaved by tryptic and chymotryptic proteases, inhibitors of these two enzyme classes were tested against antibody degradation both in vitro and in culture experiments utilizing an antibody producing T. reesei strain. The inhibitors soybean trypsin inhibitor (SBTI) and chymostatin were tested, as they have been previously shown in in vitro experiments to stabilize antibody heavy chains.
Chymostatin and SBTI were analyzed in vitro with culture supernatant. Supernatant from a fed batch fermentor culture was diluted to 6 mg/ml with sodium citrate buffer pH 5.5 (pH 5.5; 28° C.; 20 g/L spent grain extract, 60 g/L lactose). […] The strain was grown in Trichoderma minimal medium supplemented with 20 g/l spent grain extract and 60 g/l lactose at pH 5.5 and 28° C.
To this diluted supernatant 0.05 μg μl of rituximab, 100 μM chymostatin, 1 mg/ml SBTI, or a combination of both inhibitors was added in a total volume of 50 μl and sampled at 0, 1, and 19 hours to assess the early and late degradation of the rituximab antibody heavy chain. The resulting heavy chain products were analyzed by immunoblot using and anti-heavy chain AP conjugated antibody (Sigma #A3188) diluted 1:30,000 in TBST (FIG. 35). […] Additional fragments were generated after 19 hours, the two major products remained.

[2] = tested on: green fluorescent casein; assay: Total protease activity of culture supernatants against fluorescent casein; format: biochemical; conditions: 1 L fermentor, pH 5.5, casein FL
Description: The total protease activity of culture supernatant from the quadruple deletion strain M307 was then measured and compared with culture supernatants from the triple deletion strain M277 and the wild type strain M124. Each strain was grown in 2 liter shake flasks with 300 ml TrMM containing 40 g/l lactose, 20 g/l spent grain extract, and 100 mM PIPPS at pH 5.5. Day 7 supernatant samples were taken for total protease assay. The total protein concentrations of the supernatants were measured using the BCA assay with bovine immunoglobulin as the standard. The supernatants were diluted serially 1:2 in sodium citrate buffer at pH 5.5. […] The fluorescence was measured after 1 hour at 485 nm excitation and 530 nm emission.
The full length antibody yield calculated was 20% higher in the gap1 deletion strain from the day 6 sample. […] From the fermentor supernatants, the total protease activity against casein was measured. […]
The protein concentrations were determined from all supernatant samples from day 2-7. […] The fluorescence from the wells was measured after 2, 3, and 4 hours. The readings were done on the Varioskan fluorescent plate reader using 485 nm excitation and 530 nm emission.
The protease activity from the cultivations listed in Table 22.4 was measured in order to determine how the total protease activities were affected by the RNAi. […]

[3] = tested on: rituximab antibody producing strain; assay: Treatment of T. reesei rituximab cultures with inhibitors; format: cell-based, Trichoderma reesei
Description: The effectiveness of the inhibitors was also tested with the rituximab antibody producing strain, which contains a VALEKR linker sequence and the pep1 deletion. This strain was grown in triplicate, in small flasks both in presence or absence of chymostatin, SBTI, or pepstatin A. The small shake flasks contained 50 ml of TrMM plus lactose (40 g/l), spent grain extract (20 g/l), and buffer with 100 mM PIPPS at pH 5.5. The SBTI inhibitor was added to the culture at final concentrations of either 100 μg/ml or 500 μg/ml. Chymostatin was used at 100 μM, and pepstatin A was used at 10 μM. Each of the three inhibitors was added to the cultures daily on day 2, 3, 4, and 5.
Growth of the cultures was followed daily by pH from day 2 until day 7. […] In the PIPPS buffered cultures, the pH decreased from an initial pH of 5.5 down to a pH of 4.8 after day 6. With chymostatin and pepstatin A the cultures were monitored up to day 7. On day 7 the average pH for the control bottles was 4.6, while the average pH for chymostatin treated cultures was 4.9, and the average pH of pepstatin A treated cultures was 5.0.
Culture supernatant samples (30 μl) were also collected on days 3, 4, and 5 for analysis of antibody production. The analysis was performed by immunoblots using an anti-IgG heavy chain antibody AP conjugate (Sigma #A3188) and an anti-light chain antibody AP conjugate (Sigma #A3812). Each antibody was diluted 1:30,000 in TBST. The full length rituximab heavy chain is about 51 kD, the rituximab light chain CHBI fusion is about 100 kD, and the free rituximab light chain is about 28 kD.

B1: SBTI: soybean trypsin inhibitor, trypsin and subtilisin inhibitor (protein)
chain: DFVLDNEGNPLENGGTYYILSDITAFGGIRAAPTGNERCPLTVVQSRNELDKGIGTIISSPYRIRFIAEGHPLSLKFDSFAVIMLCVGIPTEWSVVEDLPEGPAVKIGENKDAMDGWFRLERVSDDEFNNYKLVFCPQQAEDDKCGDIGISIDHDDGTRRLVVSKNKPLVVQFQKLDKESL
rituximab heavy chain fragment formation [1]: inhibited the 38 kD fragment from forming | protease activity of M507 culture supplemented with inhibitor [2]: protease activity also dropped from day 6 until day 8 | effect on culture growth (followed by pH) [3]: no significant differences in the pH | rituximab light chain production vs untreated cultures ([3]; SBTI 100 or 500 μg/ml): minor improvement | rituximab heavy chain production vs untreated cultures ([3]; day 5, SBTI 100 or 500 μg/ml, chymostatin 100 μM): several fold higher

— US11180767B2, “Protease deficient filamentous fungal cells and methods of use thereof” (GLYKOS FINLAND OY, priority 2012, dated 2021)
